# Test results as given in the supplement of paper PMC10724198.
# Legend:
# Saccharomyces cerevisiae [1] = assay: protein stability index of tFT-peptide fusion in wild type (PSI (0-1 scale)); higher = more stable (slower turnover); conditions: genetic background: wild type
# Protocol: (§1)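 MPS profiling in S. cerevisiae of two library types built from selected 12-aa C-degron peptides (IN1, IN2, LN1, LN3, VN2, R1-R5, W1-W3, Atg1 and Rpa12 C-termini): saturation mutagenesis libraries and C-terminal +1 capping libraries (13 aa). Each peptide is fused to the C-terminus of a sfGFP-mCherry timer, after a GGGS linker. Cells are FACS-sorted into 8 mCherry/sfGFP bins and sequenced. PSI runs from 0 (unstable) to 1 (stable), measured once in wild type and in the das1Δ or doa10Δ background.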
# Saccharomyces cerevisiae [2] = assay: protein stability index of tFT-peptide fusion in deletion strain of DAS1 (PSI (0-1 scale)); higher = more stable (slower turnover)
# Protocol: as §1
# 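Wherever protein stability index of tFT-peptide fusion in deletion strain of DAS1 is given: PSI is a weighted mean of each variant's read distribution over the sorted stability bins, computed only for variants having over 10 reads in total.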
# 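Wherever protein stability index of tFT-peptide fusion in wild type is given: PSI derived as read-weighted mean over the 8 sorting bins, only variants exceeding 10 total reads kept, mCherry placed adjacent to the peptide and sfGFP distal.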
Sequence,protein stability index (Saccharomyces cerevisiae [1]),protein stability index (Saccharomyces cerevisiae [2])
ARWRVGLWRCAS,0.114,0.674
PDKRNHLIKILN,0.137,0.663
RLIQTLPVQFLN,0.0873,0.594
PDKRNHLIKLLNW,0.571,0.684
VRGAVGGKRLVG,0.649,0.677
LVVYMSCVACIN,0.0151,0.0291
CTSCGYKFRENN,0.691,0.693
FSMRWDFRYWVN,0.0502,0.585
PSLAASFWRVVGP,0.684,0.692
PSLNASFWRVVG,0.159,0.699
VRGAVGGWRLCG,0.239,0.676
RLIFPLPVQFLN,0.0304,0.553
PDKRNHLIKLCN,0.22,0.583
ARWRVGLFRGAS,0.655,0.665
CTSFGYKFRTNN,0.127,0.678
PDKRNHLKKLLN,0.101,0.616
PDKRNHLILLLN,0.114,0.635
LVPYLSCVACIN,0.182,0.366
LVVYKSCVACIN,0.218,0.415
PDKRNHCIKLLN,0.148,0.585
FSMRWTGRYWVN,0.0626,0.587
CTSCGDKFRTNN,0.48,0.696

Sequence,protein stability index (Saccharomyces cerevisiae [1]),protein stability index (Saccharomyces cerevisiae [2])
AVWRVGLWRGAS,0.409,0.678
MVVYLSCVACIN,0.0181,0.0769
LKILRQEMNHQN,0.437,0.672
LKILRQKENHQN,0.365,0.681
CTSCGYKFDTNN,0.667,0.705
LGVYLSCVACIN,0.0766,0.166
CTSCGYKFRTNG,0.399,0.685
ARWRVGLWRGAW,0.68,0.686
CTSCGKKFRTNN,0.5,0.688
KLIQPLPVQFLN,0.0526,0.574
LVVYLSCVACINS,0.029,0.0599
ISMRWTFRYWVN,0.059,0.481
CTSCGYKERTNN,0.632,0.699
PDKRNHLIKLLR,0.683,0.643
VRGAVGGWRYVG,0.157,0.686
CTSCGYKFRTNNW,0.705,0.716
ILIQPLPVQFLN,0.093,0.59
PSLALSFWRVVG,0.183,0.669
LVVYLSCVACVN,0.0169,0.0193
RLIQPLPVQFWN,0.132,0.618
LVRYLSCVACIN,0.0691,0.316
ARWRVGLWRGRS,0.66,0.679

Sequence,protein stability index (Saccharomyces cerevisiae [1]),protein stability index (Saccharomyces cerevisiae [2])
KIHKKGQKQKIN,0.0466,0.494
ISLAASFWRVVG,0.109,0.663
PKHKKGQKQKIN,0.0768,0.747
DRGAVGGWRLVG,0.176,0.655
RLIQPLPVWFLN,0.0563,0.609
NSLAASFWRVVG,0.147,0.679
PVVYLSCVACIN,0.0343,0.0265
LVWYLSCVACIN,0.0133,0.0212
LKIERQKMNHQN,0.333,0.682
ARWFVGLWRGAS,0.345,0.699
LVVYSSCVACIN,0.0132,0.0458
DVVYLSCVACIN,0.0164,0.0312
VRGAVGGWRLVN,0.157,0.673
PSLAASIWRVVG,0.143,0.69
RNIQPLPVQFLN,0.0759,0.61
LKILRQKMNHRN,0.493,0.653
ARWRVMLWRGAS,0.305,0.705
LKILYQKMNHQN,0.259,0.679
LVVYESCVACIN,0.343,0.402
LVVYLSCMACIN,0.0207,0.0753
RLEQPLPVQFLN,0.0758,0.574
ARHRVGLWRGAS,0.603,0.689

Sequence,protein stability index (Saccharomyces cerevisiae [1]),protein stability index (Saccharomyces cerevisiae [2])
FSMRWTFRYWEN,0.5,0.54
ARWRVGLWRGAF,0.603,0.682
ARWRVGLWRHAS,0.0927,0.688
CTSTGYKFRTNN,0.214,0.681
RLIQPLPVQFLP,0.62,0.57
LKILHQKMNHQN,0.293,0.645
PSLAASFWRSVG,0.168,0.699
CTSCGYKFRMNN,0.412,0.686
FSMRWTFSYWVN,0.0568,0.497
PDKRNHLIKLDN,0.602,0.613
PSAAASFWRVVG,0.174,0.678
FSMRWTFRYWVL,0.0913,0.457
KKHKKGQKQKIND,0.666,0.658
LKILRQKMHHQN,0.231,0.706
DDKRNHLIKLLN,0.146,0.595
LVVYLSCVAFIN,0.0135,0.0206
PSLAASFWRVVGH,0.681,0.707
PDKRNHLIKLLL,0.332,0.615
LKIVRQKMNHQN,0.197,0.696
FSMRWTFRHWVN,0.0837,0.625
RPIQPLPVQFLN,0.0515,0.593
LVVILSCVACIN,0.0224,0.0419

Sequence,protein stability index (Saccharomyces cerevisiae [1]),protein stability index (Saccharomyces cerevisiae [2])
RDIQPLPVQFLN,0.0918,0.596
VRGAWGGWRLVG,0.147,0.692
RLILPLPVQFLN,0.0596,0.589
EDKRNHLIKLLN,0.078,0.599
FSMRWTFRYWVK,0.49,0.45
KRWRVGLWRGAS,0.443,0.681
LKILRQKMNDQN,0.552,0.687
RLIQPLPVVFLN,0.047,0.565
RLIQFLPVQFLN,0.00974,0.539
VRGAVGGWRLVQ,0.24,0.684
RLIQPLPVQFDN,0.668,0.624
VRGAVGGWRLVGE,0.612,0.66
LVVYLSCPACIN,0.469,0.513
PDKRKHLIKLLN,0.171,0.583
FSMRWGFRYWVN,0.0673,0.646
ARWKVGLWRGAS,0.32,0.673
CTSCGYNFRTNN,0.642,0.704
REIQPLPVQFLN,0.121,0.61
LVVYISCVACIN,0.0144,0.0366
CTSCFYKFRTNN,0.173,0.677
CTSCGYKFKTNN,0.642,0.725
